The text below walks through data of PMC3857177 (PLoS ONE, 2013).

T1: human Shrm2 SD2 domain (1427–1610), N-terminally labelled with Oregon Green 488 (human, UniProt Q13796 1427-1610, Oregon Green 488 (succinimidyl ester) on the N-terminus, labelling essentially 1:1)
T1 chain: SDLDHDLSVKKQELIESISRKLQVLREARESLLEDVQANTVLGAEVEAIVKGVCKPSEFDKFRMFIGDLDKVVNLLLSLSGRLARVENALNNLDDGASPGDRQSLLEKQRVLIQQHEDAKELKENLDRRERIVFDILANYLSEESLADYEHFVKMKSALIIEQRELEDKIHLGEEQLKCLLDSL

T2: human Rock1 707–946, wild type (human, UniProt Q13464 707-946)
T2 construct: also called wild-type Rock1 SBD; not shown: His6, N-terminal, cleaved
T2 sequence (looked up): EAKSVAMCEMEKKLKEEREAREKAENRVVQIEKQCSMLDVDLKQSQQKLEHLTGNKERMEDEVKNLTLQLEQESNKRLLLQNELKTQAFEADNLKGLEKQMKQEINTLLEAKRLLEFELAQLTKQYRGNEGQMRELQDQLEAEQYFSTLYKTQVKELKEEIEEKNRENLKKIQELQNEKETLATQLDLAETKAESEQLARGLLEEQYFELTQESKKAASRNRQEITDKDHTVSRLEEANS

T3: human Rock1 707–946, SBD^SER variant (human, UniProt Q13464 707-946, triple alanine mutation, 884EKE886)
T3 construct: source: E. coli BL21(DE3) codon plus (RIPL), purified; not shown: His6, N-terminal, cleaved
T3 sequence (looked up): T2 sequence (looked up) with E178A, K179A, E180A

T4: human Rock1 707–946, 865EE866 to alanine (human, UniProt Q13464 707-946, 865EE866 alanine substitutions)
T4 construct: source: E. coli BL21(DE3) codon plus (RIPL), purified; not shown: His6, N-terminal, cleaved
T4 sequence (looked up): T2 sequence (looked up) with E159A, E160A

T5: His6-tagged human Rock1 707–913 (human, UniProt Q13464 707-913)
T5 construct: source: E. coli BL21(DE3) codon plus (RIPL), purified; not shown: His6, N-terminal, kept
T5 sequence (looked up): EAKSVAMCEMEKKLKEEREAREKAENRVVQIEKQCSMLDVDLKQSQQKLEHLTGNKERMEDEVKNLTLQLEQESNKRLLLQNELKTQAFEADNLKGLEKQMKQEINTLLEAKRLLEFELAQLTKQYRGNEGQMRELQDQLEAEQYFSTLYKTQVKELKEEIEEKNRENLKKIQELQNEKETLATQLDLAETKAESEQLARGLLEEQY

B1: human Rock1 SBD (834–913), wild type (domain or fragment, UniProt Q13464 834-913, looked up)
chain: GNEGQMRELQDQLEAEQYFSTLYKTQVKELKEEIEEKNRENLKKIQELQNEKETLATQLDLAETKAESEQLARGLLEEQY
notes: PDB 4L2W holds the same limits with the SER mutation 884EKE886 to AAA; also called WT SBD; not shown: His6, N-terminal, cleaved
B2: human Rock1 SBD (834–913) with the surface entropy reduction mutation (SBD^SER) (domain or fragment, UniProt Q13464 834-913, looked up)
chain: B1 chain with E51A, K52A, E53A
notes: A selenomethionine form was used for phasing only; also called Rock1 SBD^SER; SER mutant; not shown: His6, N-terminal, cleaved
B3: His6-tagged human Rock1 834–913 (domain or fragment, UniProt Q13464 834-913, looked up)
chain: B1 chain
notes: PDB 4L2W holds the same limits with the SER mutation 884EKE886 to AAA; source: E. coli BL21(DE3) codon plus (RIPL), purified; not shown: His6, N-terminal, kept
B4: His6-tagged human Rock1 772–913 (domain or fragment, UniProt Q13464 772-913, looked up)
chain: LTLQLEQESNKRLLLQNELKTQAFEADNLKGLEKQMKQEINTLLEAKRLLEFELAQLTKQYRGNEGQMRELQDQLEAEQYFSTLYKTQVKELKEEIEEKNRENLKKIQELQNEKETLATQLDLAETKAESEQLARGLLEEQY
notes: source: E. coli BL21(DE3) codon plus (RIPL), purified; not shown: His6, N-terminal, kept
B5: human Rock1 707–946, wild type (domain or fragment)
chain: T2 sequence (looked up)
B6: human Shrm2 SD2 domain (1427–1610), N-terminally labelled with Oregon Green 488 (domain or fragment, UniProt Q13796 1427-1610, looked up)
chain: T1 chain
modifications: Oregon Green 488 (succinimidyl ester) on the N-terminus, labelling essentially 1:1
notes: Shroom2 (Shrm2), human, Shrm Domain 2 (SD2), residues 1427-1610; Same construct as m1, with the fluorophore; also called Shrm2 SD2-Oregon Green 488; Oregon-Green labeled human Shrm2 SD2 domain; source: E. coli BL21(DE3) Codon+(RILP), purified, then labelled
B7: human Shrm2 SD2 domain (1427–1610), untagged (domain or fragment, UniProt Q13796 1427-1610, looked up)
chain: T1 chain
notes: Shroom2 (Shrm2), human, Shrm Domain 2 (SD2), residues 1427-1610; Cloned into pET151/D-TOPO (His6 removable with TEV); called untagged in the pull-down; also called Shrm SD2; human Shroom2 SD2; source: E. coli BL21(DE3) Codon+(RILP), purified; not shown: His6, N-terminal, cleaved
B8: human Rock1 707–946, 900ESE902 to alanine (domain or fragment, UniProt Q13464 707-946, looked up)
chain: T2 sequence (looked up) with E194A, S195A, E196A
notes: source: E. coli BL21(DE3) codon plus (RIPL), purified; not shown: His6, N-terminal, cleaved

Substitutions are numbered along the chain they refer to.

The target of data set [1] is T1, human Shrm2 SD2 domain (1427–1610), …. Briefly: FP.
Data set [2] concerns the molecule itself. Description: cross-linking; 0.002% glutaraldehyde, 25 min, 26 µM protein; 25 mM HEPES pH 7.5, 8% glycerol, 500 mM NaCl, 5 mM β-ME; SDS-PAGE, Coomassie.
The target of data set [3] is B6. Briefly: fluorescence polarisation; fluorescence anisotropy; 20 nM (legends: 50 nM) N-terminally Oregon Green 488-labelled Shrm2 SD2, increasing concentrations of Rock1 SBD; 20 mM Hepes pH 7.4, 100 mM NaCl, 5% glycerol; single binding model. The settings on record: both partners purified. (In general: Polarisation of emitted light reports the rotation of a fluorescent probe.)

Data set [4] concerns the target B7. Description: pull-down; 25 µg purified His-tagged Rock1 fragment on nickel beads, 2x molar excess of untagged Shrm2 SD2, 10 min room temperature; 2% glycerol, 100 mM NaCl, 7 mM imidazole, 1 mM β-mercaptoethanol, 20 mM Tris pH 8.0; SDS-PAGE, Coomassie. The following applies: both partners purified.
Data set [5] concerns the target human Rock1 707–946, 900ESE902 to alanine (human, UniProt Q13464 707-946, 900ESE902 alanine substitutions). Description: FP.
The target in data set [6] is T2, human Rock1 707–946, wild type. Description: fluorescence polarisation; fluorescence anisotropy; 20 nM (legends: 50 nM) N-terminally Oregon Green 488-labelled Shrm2 SD2, increasing concentrations of Rock1 SBD; 20 mM Hepes pH 7.4, 100 mM NaCl, 5% glycerol; single binding model. The following applies: both partners purified.
For data set [7], the target named is T3, human Rock1 707–946, SBD^SER variant. Briefly: native gel or EMSA; 10 µM Rock1 707–946 (wild type or mutant) mixed with 10 µM human Shrm2 SD2, 20 min room temperature; 12% native PAGE at 4°C, Coomassie. The settings on record: both partners purified. Background: Mobility shift assays separate free from complexed probe on a gel.
In data set [8] the target is T4, human Rock1 707–946, 865EE866 to alanine. The data set is described as above. The following applies: both partners purified.
Data set [9] has as its target B8. The data set is described as above. The settings on record: both partners purified.
For data set [10], the target named is T2, human Rock1 707–946, wild type. The data set is described as above. The following applies: both partners purified.
The target in data set [11] is T5, His6-tagged human Rock1 707–913. Description: pull-down; 25 µg purified His-tagged Rock1 fragment on nickel beads, 2x molar excess of untagged Shrm2 SD2, 10 min room temperature; 2% glycerol, 100 mM NaCl, 7 mM imidazole, 1 mM β-mercaptoethanol, 20 mM Tris pH 8.0; SDS-PAGE, Coomassie. The settings on record: both partners purified.

The Kd is the concentration at which binding is half-saturated. A higher Kd goes with a looser complex. For orientation: stoichiometry N means the number of molecules, sites or subunits per partner or assembly. In the case of B1, in data set [1], the Kd is 5.3 µM. In addition, the “stoichiometry N” value in data set [2] came out at 2. Further, the binding result in data set [3] is recorded as “binds”.
On to B2, for which the “stoichiometry N” value in data set [2] amounted to 2.
As to B3, the binding result in [4] was “binds”.
Turning to B4, the binding result in data set [4] is given as “binds”.
Molecule B5 gave a Kd in data set [1] of 1.7 µM.
As to B6, binding in data set [5] was put at a Kd of 9.3 µM. Moreover, the binding result in data set [6] is recorded as “binds”.
Take B7: the binding result in data set [7], in data set [8], in data set [9], in [10] and in data set [11] was “binds” each time.
For the molecule B8, the “fold decrease in binding affinity against wild type” value in data set [3] is approximately 5.5 fold.
